Test results taken from PMC3887213.

Assays:
Assay in all cases: two-hybrid; quantitative YTH (Q-YTH): chlorophenol-red-β-D-galactopyranoside colour change at 540 nm, background (bait + empty pACT2) subtracted, normalised to wild-type RocCOR = 100%
[1] = molecular target: LRRK2 RocCOR tandem domain R1441C (LexA-BD bait) (human) (UniProt Q5S007)
[2] = molecular target: LRRK2 RocCOR tandem domain R1441H (LexA-BD bait) (human) (UniProt Q5S007)
[3] = molecular target: LRRK2 RocCOR tandem domain R1441G (LexA-BD bait) (human) (UniProt Q5S007)
Sequence of LRRK2 RocCOR tandem domain R1441G (LexA-BD bait) (human) (Q5S007 whole entry R1441G, the tested form may be a part): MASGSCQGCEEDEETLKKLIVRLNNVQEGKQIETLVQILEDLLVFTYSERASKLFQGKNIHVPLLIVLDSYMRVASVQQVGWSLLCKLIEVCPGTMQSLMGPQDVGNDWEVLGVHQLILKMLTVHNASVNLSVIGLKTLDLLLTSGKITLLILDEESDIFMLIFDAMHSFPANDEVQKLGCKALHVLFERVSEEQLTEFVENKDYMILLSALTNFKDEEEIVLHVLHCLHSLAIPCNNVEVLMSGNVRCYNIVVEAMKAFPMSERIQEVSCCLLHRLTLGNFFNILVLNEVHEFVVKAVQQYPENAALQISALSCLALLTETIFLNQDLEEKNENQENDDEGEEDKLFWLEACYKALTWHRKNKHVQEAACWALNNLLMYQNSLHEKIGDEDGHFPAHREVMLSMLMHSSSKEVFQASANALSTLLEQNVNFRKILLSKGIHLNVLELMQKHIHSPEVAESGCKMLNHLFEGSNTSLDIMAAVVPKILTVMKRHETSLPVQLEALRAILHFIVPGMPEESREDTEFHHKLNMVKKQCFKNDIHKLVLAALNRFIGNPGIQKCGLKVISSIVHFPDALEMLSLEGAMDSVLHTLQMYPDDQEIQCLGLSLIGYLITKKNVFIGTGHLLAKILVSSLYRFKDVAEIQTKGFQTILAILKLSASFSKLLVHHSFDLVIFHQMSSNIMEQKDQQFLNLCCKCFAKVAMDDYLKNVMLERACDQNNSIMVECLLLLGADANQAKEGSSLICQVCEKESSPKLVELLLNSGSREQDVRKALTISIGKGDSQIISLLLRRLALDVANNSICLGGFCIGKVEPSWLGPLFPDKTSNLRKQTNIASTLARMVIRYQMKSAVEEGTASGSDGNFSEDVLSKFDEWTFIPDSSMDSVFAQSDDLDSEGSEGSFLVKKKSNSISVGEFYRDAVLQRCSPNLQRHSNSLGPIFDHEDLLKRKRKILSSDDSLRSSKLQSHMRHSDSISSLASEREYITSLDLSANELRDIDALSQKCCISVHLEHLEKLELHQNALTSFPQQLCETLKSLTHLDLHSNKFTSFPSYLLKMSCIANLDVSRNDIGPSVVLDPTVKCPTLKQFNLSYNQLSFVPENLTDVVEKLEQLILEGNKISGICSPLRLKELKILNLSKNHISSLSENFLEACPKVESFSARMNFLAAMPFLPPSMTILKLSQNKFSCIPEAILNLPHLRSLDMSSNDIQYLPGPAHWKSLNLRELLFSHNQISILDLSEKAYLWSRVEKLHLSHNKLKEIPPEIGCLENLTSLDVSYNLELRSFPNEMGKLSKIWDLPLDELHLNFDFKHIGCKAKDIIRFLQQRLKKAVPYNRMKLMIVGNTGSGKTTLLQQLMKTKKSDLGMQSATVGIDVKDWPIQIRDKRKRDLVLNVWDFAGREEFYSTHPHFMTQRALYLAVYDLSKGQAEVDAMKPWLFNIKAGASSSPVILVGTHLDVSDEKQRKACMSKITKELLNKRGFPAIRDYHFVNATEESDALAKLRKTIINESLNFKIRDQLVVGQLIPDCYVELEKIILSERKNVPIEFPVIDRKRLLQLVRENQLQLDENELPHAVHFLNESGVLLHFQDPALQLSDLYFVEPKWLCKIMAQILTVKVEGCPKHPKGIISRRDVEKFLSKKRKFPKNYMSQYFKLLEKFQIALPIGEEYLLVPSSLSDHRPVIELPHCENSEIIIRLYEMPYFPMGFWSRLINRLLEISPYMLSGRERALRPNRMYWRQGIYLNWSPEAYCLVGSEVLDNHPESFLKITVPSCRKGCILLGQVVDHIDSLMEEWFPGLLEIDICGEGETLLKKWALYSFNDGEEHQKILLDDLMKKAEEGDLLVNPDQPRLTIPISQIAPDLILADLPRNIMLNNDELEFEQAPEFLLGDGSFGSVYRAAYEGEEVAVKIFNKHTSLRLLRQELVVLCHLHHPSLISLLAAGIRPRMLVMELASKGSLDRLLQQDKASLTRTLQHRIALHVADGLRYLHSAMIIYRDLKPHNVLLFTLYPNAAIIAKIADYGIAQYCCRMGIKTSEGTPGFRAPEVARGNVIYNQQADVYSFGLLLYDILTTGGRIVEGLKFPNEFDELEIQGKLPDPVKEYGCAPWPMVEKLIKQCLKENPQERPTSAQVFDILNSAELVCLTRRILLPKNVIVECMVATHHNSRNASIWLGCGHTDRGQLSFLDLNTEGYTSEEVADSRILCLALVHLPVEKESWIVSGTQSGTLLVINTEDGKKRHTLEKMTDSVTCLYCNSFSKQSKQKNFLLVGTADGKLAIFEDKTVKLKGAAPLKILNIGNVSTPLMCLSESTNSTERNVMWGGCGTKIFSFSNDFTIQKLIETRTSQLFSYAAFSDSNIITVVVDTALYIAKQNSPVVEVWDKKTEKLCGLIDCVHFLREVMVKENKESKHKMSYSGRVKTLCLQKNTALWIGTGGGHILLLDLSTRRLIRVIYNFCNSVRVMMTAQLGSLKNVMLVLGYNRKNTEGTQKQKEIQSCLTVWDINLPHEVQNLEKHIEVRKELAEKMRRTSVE

Sequence of TUBB4 C terminus (Phe-317 to Ala-444), GAL4-AD prey (P04350 317-444): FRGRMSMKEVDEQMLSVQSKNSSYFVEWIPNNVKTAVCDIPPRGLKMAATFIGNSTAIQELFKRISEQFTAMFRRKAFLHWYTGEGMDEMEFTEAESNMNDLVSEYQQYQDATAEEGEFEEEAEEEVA
Sequence of TUBB C terminus (Phe-317 to the stop codon), GAL4-AD prey (P07437 317-444): as the sequence (P04350 317-444) above, with S16N, S19N, A49V, G117E, F119D, E120F, E121G, A123E, E124A, V127E counted along it
Sequence of LRRK2 RocCOR tandem domain R1441C (LexA-BD bait) (human) (Q5S007 whole entry R1441C, the tested form may be a part): as the sequence (Q5S007 whole entry R1441G, the tested form may be a part) above, with G1441C counted along it
Sequence of LRRK2 RocCOR tandem domain R1441H (LexA-BD bait) (human) (Q5S007 whole entry R1441H, the tested form may be a part): as the sequence (Q5S007 whole entry R1441G, the tested form may be a part) above, with G1441H counted along it

Q: With “TUBB C terminus (Phe-317 to the stop codon), GAL4-AD prey (from UniProt P07437 317-444) (domain or fragment)” as the substance, how does the percent increase of the interaction against wild-type RocCOR (Q-YTH) [1] read?
A: 25%

Q: And the percent reduction of the interaction against wild-type RocCOR (Q-YTH) [2]?
A: 25%

Q: What about the percent reduction of the interaction against wild-type RocCOR (Q-YTH) [3] of the same substance?
A: 50%

Q: Which percent increase of the interaction against wild-type RocCOR (Q-YTH) [1] does the source give for “TUBB4 C terminus (Phe-317 to Ala-444), GAL4-AD prey (from UniProt P04350 317-444) (domain or fragment)” here?
A: 25%

Q: What about the percent reduction of the interaction against wild-type RocCOR (Q-YTH) [2] of the same substance?
A: 25%

Q: And the percent reduction of the interaction against wild-type RocCOR (Q-YTH) [3]?
A: 50%
